Test results: the DeepSol protein solubility set

Assay: soluble on expression in E. coli; label from the status in PepcDB or PDB records
In the case of “MSLNRPNHVAPKTLLETLPRDRAESYLNHCSGNSASASALYLWEMDMAAALHEVLSMTEVAVRGAIDAQLQSFAKSHGVASGEWIKERDSLPHLSELRFANGRPLFDHGSLRRMSRKQEGGRTRMHPRSQASTSHGDLIAQVMFGTWGAMLPDKNDSRPQSVQDAINGLWREALQEAFPQYREGHHHHHH”, the “soluble on expression in E. coli” value is reported as “soluble”. With “MSLNSSFFKMMEKRSYNRFNQEQKAAITYDMKKHLRIIAGAGSGKTQTICAKAVYLMTQKQVDEERILMITFTRNAANELKKRVDNFSQRKTAVHIGTFHSIFFRIYNEICRKFPEVAMQGIQGDFSKDTAQKVNAVLQQLIRKYNLYIFDQYGEKTIASRLDYWQNMNLSVEEMVQLVKEKYDSIDKNARQPISERLYGLLTELQEQKRSQQLLEFNDVLQNLKSALENEEIQHYIGQKYDYLFIDEFQDTNPLQWEIVKRMTKENRIKLIVVGDDDQSIYGFRGSEPAYIKNFEKEYPTKTLFLLTNYRSRAAIVQGANRLISYNKNDRIPKAMIPAQKEAGVMEAYLFSDTKAESQWLIKQIQTFIQKNGKYKESIILYRSASQTQQLVQSLLKTNIPFVLEADSPYEGIFGIKSFQHFYQKIVHWQTALNLQKKNQAYQQLLRQLMADCYLKKSECDQYFSPKYQNIAVADYILSISPNLKSKSAEIREFEEALRKTDQHQEIYSLVQSYLHLPRIAKEIDQSDQEWIREEVKQHATFRRLQALSQETQATAKELKTREGHHHHHH” the “soluble on expression in E. coli” value was “not soluble”. With “MSLNSTLHIPKAEIHVHLEATITPSLCRKFAERNKVKLSEDIFGSEYAYQWEDFYDFIKRYDIVTGVIYTPEDYYELTYEYLKECASYNVLYVEAMVSSTHAKAKGMTYHSFLDSVHQASQDAERDFGIVSRYLMNGIRHLGADSVQETAKEVLNNPHPALVGFGLAGDELNFPPNLFTKTFDMLKQESYPITVHAGEWDGPENIRNAIHLLHPTRLGHGVRSIEDLDLVKEIVEKDIVLETCPTSNIATKIYENYESHPVKKLHDLGVRVTVNSDDPPFFNATIQGEYDAMAGIGFSAQELLSMTRNAIESSFLPEDKKTEILTKLNEGHHHHHH” the “soluble on expression in E. coli” value was “soluble”. With “MSLNSVPNDLQTWKRFVKDGVLDEARLRKRIAESWHRCKKAEVNPYLEKGPKVLQQTELDQQSKKHSFFLTTAKPYLEKLLPAIKEMEMMALLIDSDGVVLALDGHPRALYEAKRINFVEGACWTETAVGTNAIGTALHISEPVAIQGSEHYSIASHLWNCSAAPIHHEDGSLAGVIDISCPAAGAHPHMLGIATAIAYAAERELAAKSREKELELISRFGERAASSVPMVLCNTKQHIISASMPIRTSMPDWQGRHLYELKERGYSIENAVTIGDGGTCFYLSEQKKKKAFRFNGVIGQSGRSQAMLMHLERAAATDASVCLSGETGTGKEVAARALHENSERRHGPFVAVNCGAIPSDLIESELFGYAEGAFTGAKRNGYKGAFQKANQGTLFLDEIGEISHSMQVALLRVLQERKITPIGGTKEIPVDIRVIAATHCDLRELAENGKIREDLFYRLHVYPIELPPLRDRTEDIPDLFEYYKQKNHWPGDLPSDFCNVLKQWKWPGNIRELFNVFERLSIRFPDGRLRDESLPALLEAAGLPASSAEKKPAAAGVLTFREQIQKDMMIKALESAKGNVSQAAKISGIPRSTFYKRLKKFNLSAESEGGSHHHHHH” the “soluble on expression in E. coli” value was “soluble”. In the case of “MSLNTISGTHFNYHQVCRRKLWLFSAGITMEHTSDLVYEGKLIHETTYQQRPERYQELELDGIKIDFYDAKNRVVHEVKKSNKISPAHRLQLLYYLYVLERNGVLGATGILEYPTLRKKEEVILSDIDRERIREIEQEILQIISHEDCPPVIDSGICKNCSYYEFCFSGEEQEGHHHHHH”, the “soluble on expression in E. coli” value is reported as “soluble”. For “MSLNVVNSIFSKLSIAPMIDWTNSPFRTLMRLLAPNALLYTEMQTTGAVQNNPDRALYFNSVEHPLAIQLGGADKSALVKCAIIAEQKGFNEINLNLGCPSDKVQAGRFGACLMKEPEHVADCIRAIKQVVGIPVTAKTRIGIDNQDSYEFFRSFSLHLVEAGCDKLIIHARKAWLNGLNPKQNRTIPPVNYDYVYELKKEIPHIFITINGNILTVEEINNHLKHVDGVMLGRLACDNPYQIAEIHQALYPEFIKIKRSQLLMNYLDYWFDQSRANEGHHHHHH”, the “soluble on expression in E. coli” value was “not soluble”. With “MSLPDKFKRVHVVVMDSVGIGEAPDAAKFGDFDVDTFGHIAKHVGGLKMPEMGKLGLSNIREIEGIKKAEKPLAYYTKMQEASNGKDTMTGHWEIMGLYIDTPFRVFPDGFPDDLINQIEEKTGRKVIGNKPASGTEIMAELGEEHVKTGALIVYTSADSVLQIAAHEDVVPLEELYEICEFCRKITLDDPYMLGRIIARPFVGEPGAFVRTPNRHDYALKPFKPTVMDALKDGGKDVIAIGKISDIFDGEGVTESIRTKSNMDGMDQFIAVLDKDFNGMSFLNLVDFDALFGHRRDPQGYADALVDFDGRLVEVMEKLTDDDLLIITADHGNDPTYTGTDHTREFVPLLVYSPRFKNGGSELELRKTFADLGATVADNFDVKMPEYGTSFLRDLKEGHHHHHH” the “soluble on expression in E. coli” value was “not soluble”. For “MSLPMLQVALDNQTMDSAYETTRLIAEEVDIIEVGTILCVGEGVRAVRDLKALYPHKIVLADAKIADAGKILSRMCFEANADWVTVICCADINTAKGALDVAKEFNGDVQIELTGYWTWEQAQQWRDAGIGQVVYARSRDAQAAGVAWGEADITAIKRLSDMGFKVTVTGGLALEDLPLFKGIPIHVFIAGRSIRDAASPVEAARQFKRSIAELWG”, the “soluble on expression in E. coli” value was “soluble”. For “MSLPNEQPGTGPADTTLEQQDTAAAEVGHPRRIRSFVRRAGRTSTGQQRAIDELGPRFLLPYAAAPLDWEAAFGRTGARRIFEIGFGMGETSAHIAQLRPDDDFLGVEVHEPGVGALLKLIGERGIGNVRIVSHDAVEVLAQMIPEGTLDGIHVFFPDPWHKKRHNKRRLIQGPFVARLAAHLRPGGYLHCATDWEEYAHQMLEVLSAEPLLENTADGFAPRPDYRPVTKFEKRGLRLGHGVWDVVFRKREGHHHHHH”, the “soluble on expression in E. coli” value was “not soluble”. For “MSLPVFSFEEPTGPHRVGTKLYHWVDHQRNEPYSKNPNDRRELMVQIWYPAAEKSKGDPEPYIRNINELSKGLEKTLSIPAFAFSHMELVKSHSFMDLQLSDSENHYPILLFSHGFNGFRNQNTFQVEELASQGYIVLSIDHTFDAAATVFPGGRTAYVQPINLTDEGDSHIKLWEEDVSFVLNQIEKLNENDETGFFTGRLDTSRIGMFGHSYGGATAAQILAKDSRVKAAINMDGTLYGEILPESGIGKPFLLMNAEEPDEADPFEVRERYGRGLAGGGMSMVIPHTDHTSFTDLHLFSPLLQSPGENPKEVHRIINEFSLAFFDQYVKQKDDGSTLKRLITQYPEVNFKINREGHHHHHH”, the “soluble on expression in E. coli” value was “soluble”. For “MSLQEGQNRKTSSLSILAIAGVEPYQEKPGEEYMNEAQLSHFKRILEAWRNQLRDEVDRTVTHMQDEAANFPDPVDRAAQEEEFSLELRNRDRERKLIKKIEKTLKKVEDEDFGYCESCGVEIGIRRLEARPTADLCIDCKTLAEIREKQMAGEGGSHHHHHH”, the “soluble on expression in E. coli” value was “soluble”. For “MSLQMKNYQQTLKRMSDRSSGFLGVGVHKQKLGIGAIAIVVTDKDGEIVDCEMMSGVTVFSRFKPLTDFVGMSLNECKVLLQNESVDIALHGALKKIEEQMNRKENVTTEGHHHHHH”, the “soluble on expression in E. coli” value was “not soluble”. With “MSLQPVPDAGPWGDYLCDSPWALINSSIYAMKEIEPEPDFILWTGDDTPHVPDEKLGEAAVLEIVERLTKLIREVFPDTKVYAALGNHDFHPKNQFPAGSNNIYNQIAELWKPWLSNESIALFKKGAFYCEKLPGPSGAGRIVVLNTNLYYTSNALTADMADPGQQFQWLEDVLTDASKAGDMVYIVGHVPPGFFEKTQNKAWFREGFNEKYLKVVRKHHRVIAGQFFGHHHTDSFRMLYDDAGVPISAMFITPGVTPWKTTLPGVVNGANNPAIRVFEYDRATLSLKEGHHHHHH” the “soluble on expression in E. coli” value was “not soluble”. With “MSLQQSPSTSRPQLGIGLIGTGFMGRAHALAFGSANAALELPARIHLAALADADSARAEQCAQAWGFDRSHADWQQLVEDPRVQIVAITTPNHLHFPMAMAAIAAGKAVYCEKPLAVSLAQADEMQRSAKAAGVVTQVGYNYQHNPMIGLAREMIEAGELGDIVSFQGEFSEDFMGSATSPWSWRCEAAHAGGALADLGSHLLAMARYLLGDIEAVCADANTVHSQRPASPGSNEMRAIAVDDQTHALLRFASGARGTFSSSWLKHGYKNHLSFEISGTQGTLTYDQERLNELRIYRPGAPGRDGFQRLLAGPAQPGYAAFCPAPGHQLGYNELKALEVQALILAVCGQGSRGPDFEEAWQIERLATAIRLAAHEQRWVALDDEGHHHHHH” the “soluble on expression in E. coli” value was “soluble”.
